Reference: PMC9352680, “A comprehensive thermodynamic model for RNA binding by the Saccharomyces cerevisiae Pumilio protein PUF4”

T1: PUF4 RNA-binding domain (Saccharomyces cerevisiae, UniProt P25339 537-888)
T1 sequence: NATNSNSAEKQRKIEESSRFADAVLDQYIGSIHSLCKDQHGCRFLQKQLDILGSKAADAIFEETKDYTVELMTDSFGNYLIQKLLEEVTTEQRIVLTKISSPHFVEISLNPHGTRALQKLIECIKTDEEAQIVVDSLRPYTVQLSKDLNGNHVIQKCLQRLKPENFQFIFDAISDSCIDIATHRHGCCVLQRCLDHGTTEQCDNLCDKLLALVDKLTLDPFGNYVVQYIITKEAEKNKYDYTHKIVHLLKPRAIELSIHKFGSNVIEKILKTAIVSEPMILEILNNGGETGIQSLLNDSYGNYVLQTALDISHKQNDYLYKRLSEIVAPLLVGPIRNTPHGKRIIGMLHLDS


Biological target: T1, PUF4 RNA-binding domain
Test: Mg; RNA-MaP; 20 mM Na-HEPES pH 7.4, 30 mM KOAc, 0.75 mM MgCl2, 0.1% Tween-20, 5% glycerol, 0.1 mg/mL BSA, 2 mM DTT; 25 C; 0.0125-409.6 nM protein
Details: tags: N-His6-TEV cleaved; C-SNAP kept, Cy3B-labelled; label: tethered on chip by stalled RNA polymerase

Binder | Kd
Ic_S4_P4E.1_K4.1_C4.1_H4.1_A4.1_[A6T]_F4.1_[A9T]_T4.1 (ssRNA) RNA: UUUGACAACUGAUCGUUCUUUCUUGUAUUUUUUUCUUUCUCGAUCAGUUGUCUUU | 12.1 nM
Ic_S4_P4E.1_K4.1_C4.1_H4.1_A4.1_[T7A]_F4.1_[T8C]_[A9G]_T4.1 (ssRNA) RNA: UUUGACAACUGAUCGUUCUUUCUUGUAUAACGUUCUUUCUCGAUCAGUUGUCUUU | 40.4 nM
Ic_S4_P4E.1_K4.1_C4.1_H4.1_A4.1_[T7C]_F4.1_[T8G]_[A9T]_T4.1 (ssRNA) RNA: UUUGACAACUGAUCGUUCUUUCUUGUAUACGUUUCUUUCUCGAUCAGUUGUCUUU | 27.5 nM
Ic_S4_P4E.1_K4.1_C4.1_H4.1_A4.1_F4.1_[T8A]_T4.1 (ssRNA) RNA: UUUGACAACUGAUCGUUCUUUCUUGUAUAUAAUUCUUUCUCGAUCAGUUGUCUUU | 2.9 nM
Ic_S4_P4E.1_K4.1_C4.1_H4.1_A4.1_[T7C]_F4.1_[T8A]_[A9C]_T4.1 (ssRNA) RNA: UUUGACAACUGAUCGUUCUUUCUUGUAUACACUUCUUUCUCGAUCAGUUGUCUUU | 51.1 nM
Ic_S4_P4E.1_K4.1_C4.1_H4.1_A4.1_[T7G]_F4.1_[T8C]_[A9T]_T4.1 (ssRNA) RNA: UUUGACAACUGAUCGUUCUUUCUUGUAUAGCUUUCUUUCUCGAUCAGUUGUCUUU | 49.5 nM
Ic_S4_P4E.1_K4.1_C4.1_H4.1_A4.1_[T7A]_F4.1_[A9T]_T4.1 (ssRNA) RNA: UUUGACAACUGAUCGUUCUUUCUUGUAUAAUUUUCUUUCUCGAUCAGUUGUCUUU | 10.2 nM
Ic_S4_P4E.1_K4.1_C4.1_H4.1_A4.1_F4.1_[A9C]_T4.1 (ssRNA) RNA: UUUGACAACUGAUCGUUCUUUCUUGUAUAUUCUUCUUUCUCGAUCAGUUGUCUUU | 4.49 nM
Ic_S4_P4E.1_K4.1_C4.1_H4.1_A4.1_[T7G]_F4.1_[T8C]_[A9C]_T4.1 (ssRNA) RNA: UUUGACAACUGAUCGUUCUUUCUUGUAUAGCCUUCUUUCUCGAUCAGUUGUCUUU | 87.3 nM
Ic_S4_P4E.1_K4.1_C4.1_H4.1_A4.1_F4.1_[T8C]_[A9C]_T4.1 (ssRNA) RNA: UUUGACAACUGAUCGUUCUUUCUUGUAUAUCCUUCUUUCUCGAUCAGUUGUCUUU | 12.3 nM
Ic_S4_P4E.1_K4.1_C4.1_H4.1_A4.1_F4.1_T4.1 (ssRNA) RNA: UUUGACAACUGAUCGUUCUUUCUUGUAUAUUAUUCUUUCUCGAUCAGUUGUCUUU | 0.362 nM
UCUCUUUGUAAAUUCUCUCUU (ssRNA) [Ib_S1_P4E.1_K4.1_C4.1_H4.1_A4.1_[T5A]_F4.1_[A9C]_T4.1] | 26.3 nM
UCUCUUUGUACAUUGUCUCUU (ssRNA) [Ic_S1_P4E.1_K4.1_C4.1_H4.1_A4.1_[T5C]_F4.1_[A9G]_T4.1] | 3.75 nM
Ic_S4_P5E.1_K5.1_C5.1_H5.1_A5.1_[T5C]_[T6C]_F5.1_[T8A]_[T9C]_[A10C]_T5.1 (ssRNA) RNA: UUUGACAACUGAUCGUUCUUUCUUGUACCAACCUUCUUUCUCGAUCAGUUGUCUUU | 424 nM
Ic_S4_P5E.1_K5.1_C5.1_H5.1_A5.1_[T5G]_F5.1_[T8A]_[T9C]_[A10C]_T5.1 (ssRNA) RNA: UUUGACAACUGAUCGUUCUUUCUUGUAGUAACCUUCUUUCUCGAUCAGUUGUCUUU | 1160 nM
Ic_S4_P5E.1_K5.1_C5.1_H5.1_A5.1_[T5G]_[A7T]_F5.1_[T9C]_[A10C]_T5.1 (ssRNA) RNA: UUUGACAACUGAUCGUUCUUUCUUGUAGUUUCCUUCUUUCUCGAUCAGUUGUCUUU | 125 nM
Ic_S4_P5E.1_K5.1_C5.1_H5.1_A5.1_[T6C]_[A7T]_F5.1_[T9A]_[A10G]_T5.1 (ssRNA) RNA: UUUGACAACUGAUCGUUCUUUCUUGUAUCUUAGUUCUUUCUCGAUCAGUUGUCUUU | 3.48 nM
Ic_S4_P5E.1_K5.1_C5.1_H5.1_A5.1_[T6A]_[A7T]_F5.1_[T8C]_[T9G]_[A10C]_T5.1 (ssRNA) RNA: UUUGACAACUGAUCGUUCUUUCUUGUAUAUCGCUUCUUUCUCGAUCAGUUGUCUUU | 21.8 nM
Ic_S4_P5E.1_K5.1_C5.1_H5.1_A5.1_[T5G]_[T6C]_[A7T]_F5.1_[A10T]_T5.1 (ssRNA) RNA: UUUGACAACUGAUCGUUCUUUCUUGUAGCUUUUUUCUUUCUCGAUCAGUUGUCUUU | 34.7 nM
Ic_S4_P5E.1_K5.1_C5.1_H5.1_A5.1_[T5C]_[A7C]_F5.1_[T8A]_[T9G]_[A10C]_T5.1 (ssRNA) RNA: UUUGACAACUGAUCGUUCUUUCUUGUACUCAGCUUCUUUCUCGAUCAGUUGUCUUU | 730 nM
Ic_S4_P5E.1_K5.1_C5.1_H5.1_A5.1_[T5C]_[T6A]_[A7T]_F5.1_[T8G]_[A10G]_T5.1 (ssRNA) RNA: UUUGACAACUGAUCGUUCUUUCUUGUACAUGUGUUCUUUCUCGAUCAGUUGUCUUU | 24 nM
Ic_S4_P5E.1_K5.1_C5.1_H5.1_A5.1_[T5C]_[A7C]_F5.1_[T9C]_[A10G]_T5.1 (ssRNA) RNA: UUUGACAACUGAUCGUUCUUUCUUGUACUCUCGUUCUUUCUCGAUCAGUUGUCUUU | 120 nM
Ic_S4_P5E.1_K5.1_C5.1_H5.1_A5.1_[T5C]_F5.1_[T9A]_[A10C]_T5.1 (ssRNA) RNA: UUUGACAACUGAUCGUUCUUUCUUGUACUAUACUUCUUUCUCGAUCAGUUGUCUUU | 3.28 nM
Ic_S4_P5E.1_K5.1_C5.1_H5.1_A5.1_[T5C]_[T6C]_[A7T]_F5.1_[A10T]_T5.1 (ssRNA) RNA: UUUGACAACUGAUCGUUCUUUCUUGUACCUUUUUUCUUUCUCGAUCAGUUGUCUUU | 12.3 nM
Ic_S4_P5E.1_K5.1_C5.1_H5.1_A5.1_[T6C]_[A7C]_F5.1_[T8C]_[T9C]_[A10G]_T5.1 (ssRNA) RNA: UUUGACAACUGAUCGUUCUUUCUUGUAUCCCCGUUCUUUCUCGAUCAGUUGUCUUU | 674 nM

Binder | Kd
Ic_S4_P5E.1_K5.1_C5.1_H5.1_A5.1_[T6A]_[A7C]_F5.1_[T8C]_[T9G]_[A10T]_T5.1 (ssRNA) RNA: UUUGACAACUGAUCGUUCUUUCUUGUAUACCGUUUCUUUCUCGAUCAGUUGUCUUU | 37.8 nM
Ic_S4_P5E.1_K5.1_C5.1_H5.1_A5.1_[T5A]_[T6C]_[A7C]_F5.1_[T8G]_[T9C]_[A10C]_T5.1 (ssRNA) RNA: UUUGACAACUGAUCGUUCUUUCUUGUAACCGCCUUCUUUCUCGAUCAGUUGUCUUU | 1380 nM
Ic_S4_P5E.1_K5.1_C5.1_H5.1_A5.1_[T6C]_F5.1_[T8A]_[T9A]_[A10C]_T5.1 (ssRNA) RNA: UUUGACAACUGAUCGUUCUUUCUUGUAUCAAACUUCUUUCUCGAUCAGUUGUCUUU | 156 nM
Ic_S4_P5E.1_K5.1_C5.1_H5.1_A5.1_[T5C]_[T6C]_[A7G]_F5.1_[T8A]_[T9C]_[A10C]_T5.1 (ssRNA) RNA: UUUGACAACUGAUCGUUCUUUCUUGUACCGACCUUCUUUCUCGAUCAGUUGUCUUU | 1020 nM
Ic_S4_P5E.1_K5.1_C5.1_H5.1_A5.1_[T5C]_[T6G]_[A7G]_F5.1_[T9A]_T5.1 (ssRNA) RNA: UUUGACAACUGAUCGUUCUUUCUUGUACGGUAAUUCUUUCUCGAUCAGUUGUCUUU | 38.4 nM
Ic_S4_P5E.1_K5.1_C5.1_H5.1_A5.1_[T5A]_[T6C]_[A7T]_F5.1_[T8C]_[T9A]_T5.1 (ssRNA) RNA: UUUGACAACUGAUCGUUCUUUCUUGUAACUCAAUUCUUUCUCGAUCAGUUGUCUUU | 857 nM
Ic_S4_P5E.1_K5.1_C5.1_H5.1_A5.1_[T5C]_[T6A]_[A7C]_F5.1_[T9G]_[A10G]_T5.1 (ssRNA) RNA: UUUGACAACUGAUCGUUCUUUCUUGUACACUGGUUCUUUCUCGAUCAGUUGUCUUU | 14.9 nM
Ic_S4_P5E.1_K5.1_C5.1_H5.1_A5.1_[T5C]_[T6G]_[A7T]_F5.1_[T8C]_[T9C]_[A10C]_T5.1 (ssRNA) RNA: UUUGACAACUGAUCGUUCUUUCUUGUACGUCCCUUCUUUCUCGAUCAGUUGUCUUU | 114 nM
Ic_S4_P5E.1_K5.1_C5.1_H5.1_A5.1_[T5G]_[A7G]_F5.1_[T8C]_[T9C]_[A10T]_T5.1 (ssRNA) RNA: UUUGACAACUGAUCGUUCUUUCUUGUAGUGCCUUUCUUUCUCGAUCAGUUGUCUUU | 956 nM
Ic_S4_P5E.1_K5.1_C5.1_H5.1_A5.1_[T5A]_[T6A]_[A7C]_F5.1_[T8C]_[A10C]_T5.1 (ssRNA) RNA: UUUGACAACUGAUCGUUCUUUCUUGUAAACCUCUUCUUUCUCGAUCAGUUGUCUUU | 233 nM
Ic_S4_P5E.1_K5.1_C5.1_H5.1_A5.1_[A7T]_F5.1_[T8C]_[T9C]_T5.1 (ssRNA) RNA: UUUGACAACUGAUCGUUCUUUCUUGUAUUUCCAUUCUUUCUCGAUCAGUUGUCUUU | 120 nM
Ic_S4_P5E.1_K5.1_C5.1_H5.1_A5.1_[T5A]_F5.1_[T9C]_T5.1 (ssRNA) RNA: UUUGACAACUGAUCGUUCUUUCUUGUAAUAUCAUUCUUUCUCGAUCAGUUGUCUUU | 113 nM
Ic_S4_P5E.1_K5.1_C5.1_H5.1_A5.1_[T5C]_[T6C]_[A7T]_F5.1_[T8C]_[T9C]_T5.1 (ssRNA) RNA: UUUGACAACUGAUCGUUCUUUCUUGUACCUCCAUUCUUUCUCGAUCAGUUGUCUUU | 198 nM
Ic_S4_P5E.1_K5.1_C5.1_H5.1_A5.1_[T6C]_[A7G]_F5.1_[T8G]_T5.1 (ssRNA) RNA: UUUGACAACUGAUCGUUCUUUCUUGUAUCGGUAUUCUUUCUCGAUCAGUUGUCUUU | 45.9 nM
Ic_S4_P5E.1_K5.1_C5.1_H5.1_A5.1_[T5A]_[A7G]_F5.1_[T8C]_[T9A]_[A10T]_T5.1 (ssRNA) RNA: UUUGACAACUGAUCGUUCUUUCUUGUAAUGCAUUUCUUUCUCGAUCAGUUGUCUUU | 844 nM
Ic_S4_P5E.1_K5.1_C5.1_H5.1_A5.1_[T5G]_[T6C]_[A7T]_F5.1_[T8C]_[T9C]_[A10C]_T5.1 (ssRNA) RNA: UUUGACAACUGAUCGUUCUUUCUUGUAGCUCCCUUCUUUCUCGAUCAGUUGUCUUU | 658 nM
Ic_S4_P5E.1_K5.1_C5.1_H5.1_A5.1_[A7G]_F5.1_[T8G]_T5.1 (ssRNA) RNA: UUUGACAACUGAUCGUUCUUUCUUGUAUUGGUAUUCUUUCUCGAUCAGUUGUCUUU | 58.8 nM
Ic_S4_P5E.1_K5.1_C5.1_H5.1_A5.1_[T6C]_F5.1_[T8C]_[T9A]_[A10T]_T5.1 (ssRNA) RNA: UUUGACAACUGAUCGUUCUUUCUUGUAUCACAUUUCUUUCUCGAUCAGUUGUCUUU | 183 nM
Ic_S4_P5E.1_K5.1_C5.1_H5.1_A5.1_[T5A]_[T6A]_[A7T]_F5.1_[T9C]_[A10T]_T5.1 (ssRNA) RNA: UUUGACAACUGAUCGUUCUUUCUUGUAAAUUCUUUCUUUCUCGAUCAGUUGUCUUU | 28.2 nM
Ic_S4_P5E.1_K5.1_C5.1_H5.1_A5.1_[T6A]_[A7G]_F5.1_[T9A]_[A10C]_T5.1 (ssRNA) RNA: UUUGACAACUGAUCGUUCUUUCUUGUAUAGUACUUCUUUCUCGAUCAGUUGUCUUU | 3.94 nM
Ic_S4_P5E.1_K5.1_C5.1_H5.1_A5.1_[A7C]_F5.1_[T8G]_[A10G]_T5.1 (ssRNA) RNA: UUUGACAACUGAUCGUUCUUUCUUGUAUUCGUGUUCUUUCUCGAUCAGUUGUCUUU | 66.3 nM
UCUCUUUGUACAUUCUCUCUU (ssRNA) [Ib_S1_P4E.1_K4.1_C4.1_H4.1_A4.1_[T5C]_F4.1_[A9C]_T4.1] | 5.41 nM
UCUCUUUGUUUAUUAUCUCUU (ssRNA) [Ia_S1_P4E.1_K4.1_C4.1_H4.1_[A4T]_A4.1_F4.1_T4.1] | 11.5 nM
UCUCUUUGUAAAUUGUCUCUU (ssRNA) [Ic_S1_P4E.1_K4.1_C4.1_H4.1_A4.1_[T5A]_F4.1_[A9G]_T4.1] | 10.9 nM
